According to article PMC10786891, “Massively parallel profiling of RNA-targeting CRISPR-Cas13d”:

Biological target: T1, EsCas13d, nuclease-dead (Eubacterium siraeum, UniProt B0MS50, R295A;H300A;R849A;H854A)
T1 sequence: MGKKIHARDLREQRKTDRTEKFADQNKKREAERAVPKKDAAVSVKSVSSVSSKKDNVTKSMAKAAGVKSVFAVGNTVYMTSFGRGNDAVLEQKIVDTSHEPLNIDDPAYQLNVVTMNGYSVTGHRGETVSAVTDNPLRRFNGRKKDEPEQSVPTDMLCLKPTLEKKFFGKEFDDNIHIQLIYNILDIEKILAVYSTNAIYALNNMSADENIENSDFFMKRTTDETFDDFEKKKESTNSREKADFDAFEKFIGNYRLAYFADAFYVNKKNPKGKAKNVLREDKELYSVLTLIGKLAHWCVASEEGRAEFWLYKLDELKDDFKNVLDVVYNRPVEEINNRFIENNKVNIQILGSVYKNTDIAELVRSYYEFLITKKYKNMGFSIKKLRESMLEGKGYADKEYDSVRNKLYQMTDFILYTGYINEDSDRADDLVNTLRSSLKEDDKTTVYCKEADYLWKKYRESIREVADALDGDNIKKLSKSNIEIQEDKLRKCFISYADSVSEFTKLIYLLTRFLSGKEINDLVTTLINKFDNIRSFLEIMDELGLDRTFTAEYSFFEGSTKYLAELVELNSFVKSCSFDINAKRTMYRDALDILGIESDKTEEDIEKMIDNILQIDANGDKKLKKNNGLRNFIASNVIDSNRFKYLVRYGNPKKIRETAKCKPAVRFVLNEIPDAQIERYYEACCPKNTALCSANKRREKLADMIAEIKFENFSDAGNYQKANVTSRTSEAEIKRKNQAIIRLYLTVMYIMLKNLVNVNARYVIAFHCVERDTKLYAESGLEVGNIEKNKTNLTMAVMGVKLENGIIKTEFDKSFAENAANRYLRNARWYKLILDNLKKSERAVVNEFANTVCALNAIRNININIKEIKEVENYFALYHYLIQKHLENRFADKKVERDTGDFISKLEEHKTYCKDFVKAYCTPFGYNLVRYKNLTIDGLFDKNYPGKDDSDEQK
Assay: crRNA (strand 1, pre-loaded); Mg2+; 40 mM Tris-HCl pH 7.5, 150 mM NaCl, 6 mM MgCl2, 1 mM DTT, 0.1% Tween-20, 0.2 mg/ml BSA; 25 C; 10 min per concentration, then washed
Settings: tags: His6-TwinStrep-SUMO cleaved; N-terminal SNAP kept (SNAP-Surface 488); label: 3' end held by stalled T7 RNA polymerase

B1: target 3 insC 3' of 9,insC 3' of 5 (mixed)
RNA 1: CACCCGUGCAAAAUUGCAGGGGUCUAAAACGACCUGAAUAUUUCAGAUCAAA
RNA 2: GGGAAUGGAUCCACAUCUACGAAUUCGUUUUUGAUCUGAAAUACUUCACGGUCUGCAGAUCGGAAGAGCACACGU
  Kd: 99 ± 21 nM

B2: target 3 G3C,G4U (mixed)
RNA 1: CACCCGUGCAAAAUUGCAGGGGUCUAAAACGACCUGAAUAUUUCAGAUCAAA
RNA 2: GGGAAUGGAUCCACAUCUACGAAUUCGUUUUUGAUCUGAAAUAUUCAUCUCUGCAGAUCGGAAGAGCACACGU
  Kd: 18.3 ± 3.2 nM

B3: target 3 G19U,U22A (mixed)
RNA 1: CACCCGUGCAAAAUUGCAGGGGUCUAAAACGACCUGAAUAUUUCAGAUCAAA
RNA 2: GGGAAUGGAUCCACAUCUACGAAUUCGUUAUUUAUCUGAAAUAUUCAGGUCUGCAGAUCGGAAGAGCACACGU
  Kd: 80 ± 7 nM

B4: target 3 G4U,A9G (mixed)
RNA 1: CACCCGUGCAAAAUUGCAGGGGUCUAAAACGACCUGAAUAUUUCAGAUCAAA
RNA 2: GGGAAUGGAUCCACAUCUACGAAUUCGUUUUUGAUCUGAAAUGUUCAUGUCUGCAGAUCGGAAGAGCACACGU
  Kd: 37.5 ± 4 nM

B5: target 3 insC 3' of 13,insU 3' of 3 (mixed)
RNA 1: CACCCGUGCAAAAUUGCAGGGGUCUAAAACGACCUGAAUAUUUCAGAUCAAA
RNA 2: GGGAAUGGAUCCACAUCUACGAAUUCGUUUUUGAUCUGACAAUAUUCAGGUUCUGCAGAUCGGAAGAGCACACGU
  Kd: 32.5 ± 8 nM

B6: target 3 insA 3' of 22,insG 3' of 2 (mixed)
RNA 1: CACCCGUGCAAAAUUGCAGGGGUCUAAAACGACCUGAAUAUUUCAGAUCAAA
RNA 2: GGGAAUGGAUCCACAUCUACGAAUUCGUUUAUUGAUCUGAAAUAUUCAGGUGCUGCAGAUCGGAAGAGCACACGU
  Kd: 32.9 ± 4.15 nM

B7: target 3 U21A,U22C (mixed)
RNA 1: CACCCGUGCAAAAUUGCAGGGGUCUAAAACGACCUGAAUAUUUCAGAUCAAA
RNA 2: GGGAAUGGAUCCACAUCUACGAAUUCGUUCAUGAUCUGAAAUAUUCAGGUCUGCAGAUCGGAAGAGCACACGU
  Kd: 37.3 ± 5.65 nM

B8: target 3 U2C,G14U (mixed)
RNA 1: CACCCGUGCAAAAUUGCAGGGGUCUAAAACGACCUGAAUAUUUCAGAUCAAA
RNA 2: GGGAAUGGAUCCACAUCUACGAAUUCGUUUUUGAUCUUAAAUAUUCAGGCCUGCAGAUCGGAAGAGCACACGU
  Kd: 82 ± 34 nM

B9: target 3 U2A,U7G (mixed)
RNA 1: CACCCGUGCAAAAUUGCAGGGGUCUAAAACGACCUGAAUAUUUCAGAUCAAA
RNA 2: GGGAAUGGAUCCACAUCUACGAAUUCGUUUUUGAUCUGAAAUAUGCAGGACUGCAGAUCGGAAGAGCACACGU
  Kd: 62.5 ± 10.5 nM

B10: target 3 insA 3' of 10,insA 3' of 8 (mixed)
RNA 1: CACCCGUGCAAAAUUGCAGGGGUCUAAAACGACCUGAAUAUUUCAGAUCAAA
RNA 2: GGGAAUGGAUCCACAUCUACGAAUUCGUUUUUGAUCUGAAAUAAUAUCAGGUCUGCAGAUCGGAAGAGCACACGU
  Kd: 110 ± 28 nM

B11: target 3 G4C,U21C (mixed)
RNA 1: CACCCGUGCAAAAUUGCAGGGGUCUAAAACGACCUGAAUAUUUCAGAUCAAA
RNA 2: GGGAAUGGAUCCACAUCUACGAAUUCGUUUCUGAUCUGAAAUAUUCACGUCUGCAGAUCGGAAGAGCACACGU
  Kd: 60 ± 21 nM

B12: target 3 G4U,U7C (mixed)
RNA 1: CACCCGUGCAAAAUUGCAGGGGUCUAAAACGACCUGAAUAUUUCAGAUCAAA
RNA 2: GGGAAUGGAUCCACAUCUACGAAUUCGUUUUUGAUCUGAAAUAUCCAUGUCUGCAGAUCGGAAGAGCACACGU
  Kd: 120 ± 40 nM

B13: target 3 insU 3' of 13,insU 3' of 3 (mixed)
RNA 1: CACCCGUGCAAAAUUGCAGGGGUCUAAAACGACCUGAAUAUUUCAGAUCAAA
RNA 2: GGGAAUGGAUCCACAUCUACGAAUUCGUUUUUGAUCUGAUAAUAUUCAGGUUCUGCAGAUCGGAAGAGCACACGU
  Kd: 64.5 ± 20 nM

B14: target 3 G3C,C6U (mixed)
RNA 1: CACCCGUGCAAAAUUGCAGGGGUCUAAAACGACCUGAAUAUUUCAGAUCAAA
RNA 2: GGGAAUGGAUCCACAUCUACGAAUUCGUUUUUGAUCUGAAAUAUUUAGCUCUGCAGAUCGGAAGAGCACACGU
  Kd: 13.1 ± 0.95 nM

B15: target 3 insG 3' of 22,insG 3' of 22 (mixed)
RNA 1: CACCCGUGCAAAAUUGCAGGGGUCUAAAACGACCUGAAUAUUUCAGAUCAAA
RNA 2: GGGAAUGGAUCCACAUCUACGAAUUCGUUUGGUUGAUCUGAAAUAUUCAGGUCUGCAGAUCGGAAGAGCACACGU
  Kd: 64.5 ± 13.5 nM

B16: target 3 insA 3' of 21,insU 3' of 5 (mixed)
RNA 1: CACCCGUGCAAAAUUGCAGGGGUCUAAAACGACCUGAAUAUUUCAGAUCAAA
RNA 2: GGGAAUGGAUCCACAUCUACGAAUUCGUUUUAUGAUCUGAAAUAUUCAUGGUCUGCAGAUCGGAAGAGCACACGU
  Kd: 44 ± 4.65 nM

B17: target 3 insA 3' of 14,insG 3' of 2 (mixed)
RNA 1: CACCCGUGCAAAAUUGCAGGGGUCUAAAACGACCUGAAUAUUUCAGAUCAAA
RNA 2: GGGAAUGGAUCCACAUCUACGAAUUCGUUUUUGAUCUGAAAAUAUUCAGGUGCUGCAGAUCGGAAGAGCACACGU
  Kd: 32.8 ± 3.65 nM

B18: target 3 insC 3' of 8,insA 3' of 3 (mixed)
RNA 1: CACCCGUGCAAAAUUGCAGGGGUCUAAAACGACCUGAAUAUUUCAGAUCAAA
RNA 2: GGGAAUGGAUCCACAUCUACGAAUUCGUUUUUGAUCUGAAAUAUCUCAGGAUCUGCAGAUCGGAAGAGCACACGU
  Kd: 93 ± 27 nM

B19: target 3 insG 3' of 22,insG 3' of 2 (mixed)
RNA 1: CACCCGUGCAAAAUUGCAGGGGUCUAAAACGACCUGAAUAUUUCAGAUCAAA
RNA 2: GGGAAUGGAUCCACAUCUACGAAUUCGUUUGUUGAUCUGAAAUAUUCAGGUGCUGCAGAUCGGAAGAGCACACGU
  Kd: 61 ± 23 nM

B20: target 3 G4C,A11G (mixed)
RNA 1: CACCCGUGCAAAAUUGCAGGGGUCUAAAACGACCUGAAUAUUUCAGAUCAAA
RNA 2: GGGAAUGGAUCCACAUCUACGAAUUCGUUUUUGAUCUGAAGUAUUCACGUCUGCAGAUCGGAAGAGCACACGU
  Kd: 54.5 ± 18.5 nM

B21: target 3 C6U,U8A (mixed)
RNA 1: CACCCGUGCAAAAUUGCAGGGGUCUAAAACGACCUGAAUAUUUCAGAUCAAA
RNA 2: GGGAAUGGAUCCACAUCUACGAAUUCGUUUUUGAUCUGAAAUAAUUAGGUCUGCAGAUCGGAAGAGCACACGU
  Kd: 50.8 ± 4.85 nM

B22: target 3 U21C,U22A (mixed)
RNA 1: CACCCGUGCAAAAUUGCAGGGGUCUAAAACGACCUGAAUAUUUCAGAUCAAA
RNA 2: GGGAAUGGAUCCACAUCUACGAAUUCGUUACUGAUCUGAAAUAUUCAGGUCUGCAGAUCGGAAGAGCACACGU
  Kd: 30.5 ± 7 nM

B23: target 3 C1G,A9G (mixed)
RNA 1: CACCCGUGCAAAAUUGCAGGGGUCUAAAACGACCUGAAUAUUUCAGAUCAAA
RNA 2: GGGAAUGGAUCCACAUCUACGAAUUCGUUUUUGAUCUGAAAUGUUCAGGUGUGCAGAUCGGAAGAGCACACGU
  Kd: 33.5 ± 8.5 nM

B24: target 3 insA 3' of 10,insU 3' of 6 (mixed)
RNA 1: CACCCGUGCAAAAUUGCAGGGGUCUAAAACGACCUGAAUAUUUCAGAUCAAA
RNA 2: GGGAAUGGAUCCACAUCUACGAAUUCGUUUUUGAUCUGAAAUAAUUCUAGGUCUGCAGAUCGGAAGAGCACACGU
  Kd: 79.5 ± 14.5 nM

B25: target 3 insU 3' of 22,insG 3' of 7 (mixed)
RNA 1: CACCCGUGCAAAAUUGCAGGGGUCUAAAACGACCUGAAUAUUUCAGAUCAAA
RNA 2: GGGAAUGGAUCCACAUCUACGAAUUCGUUUUUUGAUCUGAAAUAUUGCAGGUCUGCAGAUCGGAAGAGCACACGU
  Kd: 85 ± 26.5 nM

B26: target 1 C2G,A14C (mixed)
RNA 1: CACCCGUGCAAAAAUGCAGGGGUCUAAAACUGAGCGGAUAACCUCUCUAUGG
RNA 2: GGGAAUGGAUCCACAUCUACGAAUUCGUACCAUAGAGCGGUUAUCCGCUGACCGAGAUCGGAAGAGCACACGU
  Kd: 44.8 ± 3.3 nM

B27: target 1 insG 3' of 3,insA 3' of 2 (mixed)
RNA 1: CACCCGUGCAAAAAUGCAGGGGUCUAAAACUGAGCGGAUAACCUCUCUAUGG
RNA 2: GGGAAUGGAUCCACAUCUACGAAUUCGUACCAUAGAGAGGUUAUCCGCUGCAACCGAGAUCGGAAGAGCACACGU
  Kd: 6.5 ± 0.4 nM

B28: target 1 C2A,G17U (mixed)
RNA 1: CACCCGUGCAAAAAUGCAGGGGUCUAAAACUGAGCGGAUAACCUCUCUAUGG
RNA 2: GGGAAUGGAUCCACAUCUACGAAUUCGUACCAUAUAGAGGUUAUCCGCUAACCGAGAUCGGAAGAGCACACGU
  Kd: 30.5 ± 2.6 nM
